Test results: paper PMC9951844 (Nature Communications, 2023)

B1: YB13-292 Fab (Fab, V domains shown)
VH: EVQLVESGGGLVKPGGSLRLSCAASGFSFITYNMNWVRQAPGKGLEWVSSISSNILSSTSYIYYADSVKGRFTISRDDAANSLFLQMNSLRVEDTAQYYCARTRSRSVRNCTSATCPVDAFDLWGQGTMVIVSS
VL: DIVLTQSPLSLPVTPGEPASISCRSSQSLLRSNGYNYLDWYLQKPGQSPHLLIYLGSNRASGVPDRFSGSGSGTDFTLKISRVEAEDVGVYYCMQALQTPYTFGQGTNLEIK
B2: YB9-258 Fab (Fab, V domains shown)
VH: EVQLVESGGGLIQPGGSLRLSCAASGLTVSSNYMHWVRQAPGKGLEWVSVLYAGGSAFYADSVKGRFTISRNNSKNTLYLQMNSLRAEDTAIYYCARGLGDYLDSWGQGTLVTVSS
VL: DIQMTQSPSSVSASVGDRVTITCRASQGIGSWLAWYQQKPGKAPQLLIYAASTLQSGVPPRFSGSGSGTDFTLTITSLQPEDFASYYCQQANSVLALTFGGGTKVEIK
B3: R1-32 Fab (Fab, V domains shown)
VH: EVQLVESGAEVKKPGSSVKVSCKASGGTFSSYAISWVRQAPGQGLEWMGGIIPILGIANYAQKFQGRVTITADKSTSTAYMELSSLRSEDTAVYYCARENGYSGYGAAANFDLWGRGTLVTVSS
VL: QSVLTQPPSVSGAPGQRVTISCTGSSSNIGAGYDVHWYQQLPGTAPKLLIYGNSNRPSGVPDRFSGSKSGTSASLAITGLQAEDEADYYCQSYDSSLSGSVFGGGTKLTVL

How the values were obtained:
[1] = biological target: S-R/6P/Omicron BA.1 (SARS-CoV-2 Omicron BA.1 (B.1.1.529), S371L | S373P | S375F | K417N | A484 | proline substitution at residue 817 | …); assay: cryo-EM structure; settings: both partners purified
[2] = biological target: S-GSAS/6P/Wildtype (SARS-CoV-2 hCoV-19/Wuhan/WIV04/2019, UniProt P0DTC2, proline substitution at residue 817 | proline substitution at residue 892 | …); assay: cryo-EM structure; settings: both partners purified

| Binder | stoichiometry N [1] | stoichiometry N [2] |
| --- | --- | --- |
| B1 | 3 Fabs per spike trimer (3:3 protomer:Fab) |  |
| B2 |  | 3 Fabs per spike trimer (3:3:3) |
| B3 |  | 3 Fabs per spike trimer (3:3:3) |
